The values below come from paper PMC8494748.

The experiment concerns the target T1, MS2 bacteriophage coat protein (bacteriophage MS2), P03612.
T1 chain: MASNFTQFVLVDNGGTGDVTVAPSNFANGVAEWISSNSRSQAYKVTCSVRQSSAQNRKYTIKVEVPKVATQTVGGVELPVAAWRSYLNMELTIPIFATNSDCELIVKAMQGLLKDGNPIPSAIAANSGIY
In words: SDS-PAGE with Western blot; 12.5% acrylamide gel, polyclonal anti-MS2 coat protein antibody; BL21(DE3) bacterial lysate; bands of 14 and 28 kDa. To be noted: remark: other sources report otherwise. A general note: A western blot detects proteins with antibodies after separation by electrophoresis.

B1: MS2 bacteriophage coat protein, P03612 1-130 (natural protein)
chain: MASNFTQFVLVDNGGTGDVTVAPSNFANGVAEWISSNSRSQAYKVTCSVRQSSAQNRKYTIKVEVPKVATQTVGGVELPVAAWRSYLNMELTIPIFATNSDCELIVKAMQGLLKDGNPIPSAIAANSGIY
Usually stoichiometry N stands for a count of units in the complex or per binding partner. Consider B1, for which the stoichiometry N was 2.
